Substrate: CC(=O)N1c2ccc(O)cc2Oc2cc(O)ccc21
Assay: purified protein, by the assay type
[1] = other: Lineweaver-Burk curves in the absence of inhibitor
[2] = other: initial velocities, plate reader, MPO 23 nM, H2O2 22 μM, error 2 x SD

B1: Myeloperoxidase (MPO) (Homo sapiens) (protein)
chain 1: not shown
chain 2: VNCETSCVQQPPCFPLKIPPNDPRIKNQADCIPFFRSCPACPGSNITIRNQINALTSFVDASMVYGSEEPLARNLRNMSNQLGLLAVNQRFQDNGRALLPFDNLHDDPCLLTNRSARIPCFLAGDTRSSEMPELTSMHTLLLREHNRLATELKSLNPRWDGERLYQEARKIVGAMVQIITYRDYLPLVLGPTAMRKYLPTYRSYNDSVDPRIANVFTNAFRYGHTLIQPFMFRLDNRYQPMEPNPRVPLSRVFFASWRVVLEGGIDPILRGLMATPAKLNRQNQIAVDEIRERLFEQVMRIGLDLPALNMQRSRDHGLPGYNAWRRFCGLPQPETVGQLGTVLRNLKLARKLMEQYGTPNNIDIWMGGVSEPLKRKGRVGPLLACIIGTQFRKLRDGDRFWWENEGVFSMQQRQALAQISLPRIICDNTGITTVSKNNIFMSNSYPRDFVNCSTLPALNLASWREAS
For B1, the Km [1] was 28.8 µM, the kcat [1] was 207 s⁻¹ and the Km [2] was 31 ± 4 µM. For the same protein, the kcat [2] was 186 ± 6 s⁻¹.
